The values below come from patent EP1242600B1 (ZymoGenetics, Inc., dated 2001).

Several values for one entry are separate records, joined by “and”; a condition that tells them apart may be missing. Equal entries are not always repeated.

The test has as its target T1, CRF2-4/zcytor11 heterodimeric receptor on BaF3/CRF2-4/zcytor11 cells (human, UniProt Q08334 20-325, limits assumed).
T1 sequence 1: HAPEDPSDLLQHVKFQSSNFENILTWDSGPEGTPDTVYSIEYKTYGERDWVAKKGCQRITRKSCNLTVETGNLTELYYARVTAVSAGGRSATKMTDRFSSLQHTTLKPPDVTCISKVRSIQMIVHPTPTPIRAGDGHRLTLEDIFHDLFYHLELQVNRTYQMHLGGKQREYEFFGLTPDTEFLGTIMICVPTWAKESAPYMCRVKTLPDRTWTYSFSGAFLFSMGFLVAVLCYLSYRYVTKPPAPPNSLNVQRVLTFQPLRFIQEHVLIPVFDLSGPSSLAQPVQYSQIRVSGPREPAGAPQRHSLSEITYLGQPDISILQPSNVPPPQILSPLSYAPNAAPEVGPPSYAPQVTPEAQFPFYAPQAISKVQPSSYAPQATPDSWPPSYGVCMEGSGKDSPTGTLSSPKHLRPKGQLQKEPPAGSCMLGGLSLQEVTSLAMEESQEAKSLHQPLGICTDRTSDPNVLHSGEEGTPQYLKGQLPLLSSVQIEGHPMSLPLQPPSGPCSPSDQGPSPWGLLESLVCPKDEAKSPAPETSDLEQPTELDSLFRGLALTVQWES
T1 sequence 2: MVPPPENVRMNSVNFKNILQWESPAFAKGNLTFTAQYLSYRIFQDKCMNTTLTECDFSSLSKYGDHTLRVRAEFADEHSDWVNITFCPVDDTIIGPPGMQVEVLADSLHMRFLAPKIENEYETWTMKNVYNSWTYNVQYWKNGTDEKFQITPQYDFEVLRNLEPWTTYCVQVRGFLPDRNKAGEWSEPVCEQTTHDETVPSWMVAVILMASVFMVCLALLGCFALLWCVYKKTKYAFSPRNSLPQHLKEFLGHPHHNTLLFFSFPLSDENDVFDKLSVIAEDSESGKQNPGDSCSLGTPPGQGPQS
Briefly: cell-based or functional assay.

B1: ZCYTO18-CEE polypeptide purified from BHK 570 cells (ligand)
chain: APISSHCRLDKSNFQQPYITNRTFMLAKEASLADNNTDVRLIGEKLFHGVSMSERCYLMKQVLNFTLEEVLFPQSDRFQPYMQEVVPFLARLSNRLSTCHIEGDDLHIQRNVQKLKDTVKKLGESGEIKAIGELDLLFMSLRNACIEYMPME
Take B1: the “proliferation of BaF3/CRF2-4/zcytor11 cells (Alamar Blue)” value was ~15 fold over background and 2 fold induction.
